Reference: the supplement of paper PMC12338614
± gives the uncertainty stated by the source.

B1: library; numbered along this chain (parent)
chain: MEVVDPQQLGMFTEGELMSVGMDTFIHRIDSTEVIYQPRRKRAKLIGKYLMGDLLGEGSYGKVKEVLDSETLCRRAVKILKKKKLRRIPNGEANVKKEIQLLRRLRHKNVIQLVDVLYNEEKQKMYMVMEYCVCGMQEMLDSVPEKRFPVCQAHGYFCQLIDGLEYLHSQGIVHKDIKPGNLLLTTGGTLKISDLGVAEALHPFAADDTCRTSQGSPAFQPPEIANGLDTFSGFKVDIWSAGVTLYNITTGLYPFEGDNIYKLFENIGKGSYAIPGDCGPPLSDLLKGMLEYEPAKRFSIRQIRQHSWFRKKHPPAEAPVPIPPSPDTKDRWRSMTVVPYLEDLHGADEDEDLFDIEDDIIYTQDFTVPGQVPEEEASHNGQRRGLPKAVCMNGTEAAQLSTKSRAEGRAPNPARKACSASSKIRRLSACKQQ

Variants of: B1
Test: STK11 functional score (HeLa growth suppression), rescaled enrichment; synonymous median = 1, nonsense median = 0 (normalised score)
Conditions: with HeLa; variant type: missense
Outline: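 In HeLa, Bxb1 integrated POPCode codon-randomised libraries of codon-optimised STK11 at an AAVS1 landing pad; three regions were each transfected three times. Integrants, marked as BFP-negative and mCherry-positive, were FACS-sorted 4–5 days after electroporation and expanded for about two weeks before tiled gDNA amplicons were sequenced on NextSeq (~2 million reads per tile). Each functional score is a post/pre-selection log ratio corrected to wild type, rescaled to the synonymous and nonsense medians, and merged across codons and replicate transfections, with error estimated by bootstrapping.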

Row | Variant | STK11 functional score
1 | MEVVDPQQLGMFTEGELMSVGMDTFIHRIDSTEVIYQPRRKRAKLIGKYLMGDLLGEGSYGKVKEVLDSETLCRRAVKILKKKKLRRIPNGEANVKKEIQLLRRLRHKNVIQLVDVLYNEEKQKMYMVMEYCVCGMQEMLDSVPEKRFPVCQAHGYFCQLIDGLEYLHSQGIVHKDIKPGNLLLTTGGTLKISDLGVAEALHPFAADDTCRTSQGSPAFQPPEIANGLDTFSGFKVDIWSAGVTLYNITTGLYPFEGDNIYKLFENIGKGSYAIPGDCGPPLSDLLKGMLEYEPAKRFSIRQIRQHSWFRKKHPPAEAPVPIPSSPDTKDRWRSMTVVPYLEDLHGADEDEDLFDIEDDIIYTQDFTVPGQVPEEEASHNGQRRGLPKAVCMNGTEAAQLSTKSRAEGRAPNPARKACSASSKIRRLSACKQQ [P324S] | 1.45 ± 0.11
2 | MEVVDPQQLGMFTEGELMSVGMDTFIHRIDSTEVIYQPRRKRAKLIGKYLMGDLLGEGSYGKVKEVLDSETLCRRAVKILKKKKLRRIPNGEANVKKEIQLLRRLRHKNVIQLVDVLYNEEKQKMYMVMEYCVCGMQEMLDSVPEKRFPVCQAHGYFCQLIDGLEYLHSQGIVHKDIKPGNLLLTTGGTLKISDLGVAEALHPFAADDTCRTSQGSPAFQPPEIANGLDTFSGFKVDIWSAGVTLYNITTGLYPFEGDNIYKLFENIGKGSYAIPGDCGPPLSDLLKGMLEYEPAKRFSIRQIRQHSWFRKKHPPAEAPVPIPWSPDTKDRWRSMTVVPYLEDLHGADEDEDLFDIEDDIIYTQDFTVPGQVPEEEASHNGQRRGLPKAVCMNGTEAAQLSTKSRAEGRAPNPARKACSASSKIRRLSACKQQ [P324W] | 0.731 ± 0.099
3 | MEVVDPQQLGMFTEGELMSVGMDTFIHRIDSTEVIYQPRRKRAKLIGKYLMGDLLGEGSYGKVKEVLDSETLCRRAVKILKKKKLRRIPNGEANVKKEIQLLRRLRHKNVIQLVDVLYNEEKQKMYMVMEYCVCGMQEMLDSVPEKRFPVCQAHGYFCQLIDGLEYLHSQGIVHKDIKPGNLLLTTGGTLKISDLGVAEALHPFAADDTCRTSQGSPAFQPPEIANGLDTFSGFKVDIWSAGVTLYNITTGLYPFEGDNIYKLFENIGKGSYAIPGDCGPPLSDLLKGMLEYEPAKRFSIRQIRQHSWFRKKHPPAEAPVPIPRSPDTKDRWRSMTVVPYLEDLHGADEDEDLFDIEDDIIYTQDFTVPGQVPEEEASHNGQRRGLPKAVCMNGTEAAQLSTKSRAEGRAPNPARKACSASSKIRRLSACKQQ [P324R] | 1.17 ± 0.15
4 | MEVVDPQQLGMFTEGELMSVGMDTFIHRIDSTEVIYQPRRKRAKLIGKYLMGDLLGEGSYGKVKEVLDSETLCRRAVKILKKKKLRRIPNGEANVKKEIQLLRRLRHKNVIQLVDVLYNEEKQKMYMVMEYCVCGMQEMLDSVPEKRFPVCQAHGYFCQLIDGLEYLHSQGIVHKDIKPGNLLLTTGGTLKISDLGVAEALHPFAADDTCRTSQGSPAFQPPEIANGLDTFSGFKVDIWSAGVTLYNITTGLYPFEGDNIYKLFENIGKGSYAIPGDCGPPLSDLLKGMLEYEPAKRFSIRQIRQHSWFRKKHPPAEAPVPIPTSPDTKDRWRSMTVVPYLEDLHGADEDEDLFDIEDDIIYTQDFTVPGQVPEEEASHNGQRRGLPKAVCMNGTEAAQLSTKSRAEGRAPNPARKACSASSKIRRLSACKQQ [P324T] | 1.15 ± 0.23
5 | MEVVDPQQLGMFTEGELMSVGMDTFIHRIDSTEVIYQPRRKRAKLIGKYLMGDLLGEGSYGKVKEVLDSETLCRRAVKILKKKKLRRIPNGEANVKKEIQLLRRLRHKNVIQLVDVLYNEEKQKMYMVMEYCVCGMQEMLDSVPEKRFPVCQAHGYFCQLIDGLEYLHSQGIVHKDIKPGNLLLTTGGTLKISDLGVAEALHPFAADDTCRTSQGSPAFQPPEIANGLDTFSGFKVDIWSAGVTLYNITTGLYPFEGDNIYKLFENIGKGSYAIPGDCGPPLSDLLKGMLEYEPAKRFSIRQIRQHSWFRKKHPPAEAPVPIPVSPDTKDRWRSMTVVPYLEDLHGADEDEDLFDIEDDIIYTQDFTVPGQVPEEEASHNGQRRGLPKAVCMNGTEAAQLSTKSRAEGRAPNPARKACSASSKIRRLSACKQQ [P324V] | 1.58 ± 0.14
6 | MEVVDPQQLGMFTEGELMSVGMDTFIHRIDSTEVIYQPRRKRAKLIGKYLMGDLLGEGSYGKVKEVLDSETLCRRAVKILKKKKLRRIPNGEANVKKEIQLLRRLRHKNVIQLVDVLYNEEKQKMYMVMEYCVCGMQEMLDSVPEKRFPVCQAHGYFCQLIDGLEYLHSQGIVHKDIKPGNLLLTTGGTLKISDLGVAEALHPFAADDTCRTSQGSPAFQPPEIANGLDTFSGFKVDIWSAGVTLYNITTGLYPFEGDNIYKLFENIGKGSYAIPGDCGPPLSDLLKGMLEYEPAKRFSIRQIRQHSWFRKKHPPAEAPVPIPPDPDTKDRWRSMTVVPYLEDLHGADEDEDLFDIEDDIIYTQDFTVPGQVPEEEASHNGQRRGLPKAVCMNGTEAAQLSTKSRAEGRAPNPARKACSASSKIRRLSACKQQ [S325D] | 1.09 ± 0.29
7 | MEVVDPQQLGMFTEGELMSVGMDTFIHRIDSTEVIYQPRRKRAKLIGKYLMGDLLGEGSYGKVKEVLDSETLCRRAVKILKKKKLRRIPNGEANVKKEIQLLRRLRHKNVIQLVDVLYNEEKQKMYMVMEYCVCGMQEMLDSVPEKRFPVCQAHGYFCQLIDGLEYLHSQGIVHKDIKPGNLLLTTGGTLKISDLGVAEALHPFAADDTCRTSQGSPAFQPPEIANGLDTFSGFKVDIWSAGVTLYNITTGLYPFEGDNIYKLFENIGKGSYAIPGDCGPPLSDLLKGMLEYEPAKRFSIRQIRQHSWFRKKHPPAEAPVPIPPAPDTKDRWRSMTVVPYLEDLHGADEDEDLFDIEDDIIYTQDFTVPGQVPEEEASHNGQRRGLPKAVCMNGTEAAQLSTKSRAEGRAPNPARKACSASSKIRRLSACKQQ [S325A] | 1.05 ± 0.5
8 | MEVVDPQQLGMFTEGELMSVGMDTFIHRIDSTEVIYQPRRKRAKLIGKYLMGDLLGEGSYGKVKEVLDSETLCRRAVKILKKKKLRRIPNGEANVKKEIQLLRRLRHKNVIQLVDVLYNEEKQKMYMVMEYCVCGMQEMLDSVPEKRFPVCQAHGYFCQLIDGLEYLHSQGIVHKDIKPGNLLLTTGGTLKISDLGVAEALHPFAADDTCRTSQGSPAFQPPEIANGLDTFSGFKVDIWSAGVTLYNITTGLYPFEGDNIYKLFENIGKGSYAIPGDCGPPLSDLLKGMLEYEPAKRFSIRQIRQHSWFRKKHPPAEAPVPIPPMPDTKDRWRSMTVVPYLEDLHGADEDEDLFDIEDDIIYTQDFTVPGQVPEEEASHNGQRRGLPKAVCMNGTEAAQLSTKSRAEGRAPNPARKACSASSKIRRLSACKQQ [S325M] | 0.0951 ± 0.43
9 | MEVVDPQQLGMFTEGELMSVGMDTFIHRIDSTEVIYQPRRKRAKLIGKYLMGDLLGEGSYGKVKEVLDSETLCRRAVKILKKKKLRRIPNGEANVKKEIQLLRRLRHKNVIQLVDVLYNEEKQKMYMVMEYCVCGMQEMLDSVPEKRFPVCQAHGYFCQLIDGLEYLHSQGIVHKDIKPGNLLLTTGGTLKISDLGVAEALHPFAADDTCRTSQGSPAFQPPEIANGLDTFSGFKVDIWSAGVTLYNITTGLYPFEGDNIYKLFENIGKGSYAIPGDCGPPLSDLLKGMLEYEPAKRFSIRQIRQHSWFRKKHPPAEAPVPIPPGPDTKDRWRSMTVVPYLEDLHGADEDEDLFDIEDDIIYTQDFTVPGQVPEEEASHNGQRRGLPKAVCMNGTEAAQLSTKSRAEGRAPNPARKACSASSKIRRLSACKQQ [S325G] | 0.96 ± 0.28
10 | MEVVDPQQLGMFTEGELMSVGMDTFIHRIDSTEVIYQPRRKRAKLIGKYLMGDLLGEGSYGKVKEVLDSETLCRRAVKILKKKKLRRIPNGEANVKKEIQLLRRLRHKNVIQLVDVLYNEEKQKMYMVMEYCVCGMQEMLDSVPEKRFPVCQAHGYFCQLIDGLEYLHSQGIVHKDIKPGNLLLTTGGTLKISDLGVAEALHPFAADDTCRTSQGSPAFQPPEIANGLDTFSGFKVDIWSAGVTLYNITTGLYPFEGDNIYKLFENIGKGSYAIPGDCGPPLSDLLKGMLEYEPAKRFSIRQIRQHSWFRKKHPPAEAPVPIPPNPDTKDRWRSMTVVPYLEDLHGADEDEDLFDIEDDIIYTQDFTVPGQVPEEEASHNGQRRGLPKAVCMNGTEAAQLSTKSRAEGRAPNPARKACSASSKIRRLSACKQQ [S325N] | 1.47 ± 0.18
11 | MEVVDPQQLGMFTEGELMSVGMDTFIHRIDSTEVIYQPRRKRAKLIGKYLMGDLLGEGSYGKVKEVLDSETLCRRAVKILKKKKLRRIPNGEANVKKEIQLLRRLRHKNVIQLVDVLYNEEKQKMYMVMEYCVCGMQEMLDSVPEKRFPVCQAHGYFCQLIDGLEYLHSQGIVHKDIKPGNLLLTTGGTLKISDLGVAEALHPFAADDTCRTSQGSPAFQPPEIANGLDTFSGFKVDIWSAGVTLYNITTGLYPFEGDNIYKLFENIGKGSYAIPGDCGPPLSDLLKGMLEYEPAKRFSIRQIRQHSWFRKKHPPAEAPVPIPPEPDTKDRWRSMTVVPYLEDLHGADEDEDLFDIEDDIIYTQDFTVPGQVPEEEASHNGQRRGLPKAVCMNGTEAAQLSTKSRAEGRAPNPARKACSASSKIRRLSACKQQ [S325E] | 1.24 ± 0.67
12 | MEVVDPQQLGMFTEGELMSVGMDTFIHRIDSTEVIYQPRRKRAKLIGKYLMGDLLGEGSYGKVKEVLDSETLCRRAVKILKKKKLRRIPNGEANVKKEIQLLRRLRHKNVIQLVDVLYNEEKQKMYMVMEYCVCGMQEMLDSVPEKRFPVCQAHGYFCQLIDGLEYLHSQGIVHKDIKPGNLLLTTGGTLKISDLGVAEALHPFAADDTCRTSQGSPAFQPPEIANGLDTFSGFKVDIWSAGVTLYNITTGLYPFEGDNIYKLFENIGKGSYAIPGDCGPPLSDLLKGMLEYEPAKRFSIRQIRQHSWFRKKHPPAEAPVPIPPLPDTKDRWRSMTVVPYLEDLHGADEDEDLFDIEDDIIYTQDFTVPGQVPEEEASHNGQRRGLPKAVCMNGTEAAQLSTKSRAEGRAPNPARKACSASSKIRRLSACKQQ [S325L] | 1.57 ± 0.25
13 | MEVVDPQQLGMFTEGELMSVGMDTFIHRIDSTEVIYQPRRKRAKLIGKYLMGDLLGEGSYGKVKEVLDSETLCRRAVKILKKKKLRRIPNGEANVKKEIQLLRRLRHKNVIQLVDVLYNEEKQKMYMVMEYCVCGMQEMLDSVPEKRFPVCQAHGYFCQLIDGLEYLHSQGIVHKDIKPGNLLLTTGGTLKISDLGVAEALHPFAADDTCRTSQGSPAFQPPEIANGLDTFSGFKVDIWSAGVTLYNITTGLYPFEGDNIYKLFENIGKGSYAIPGDCGPPLSDLLKGMLEYEPAKRFSIRQIRQHSWFRKKHPPAEAPVPIPPIPDTKDRWRSMTVVPYLEDLHGADEDEDLFDIEDDIIYTQDFTVPGQVPEEEASHNGQRRGLPKAVCMNGTEAAQLSTKSRAEGRAPNPARKACSASSKIRRLSACKQQ [S325I] | 1.56 ± 0.26
14 | MEVVDPQQLGMFTEGELMSVGMDTFIHRIDSTEVIYQPRRKRAKLIGKYLMGDLLGEGSYGKVKEVLDSETLCRRAVKILKKKKLRRIPNGEANVKKEIQLLRRLRHKNVIQLVDVLYNEEKQKMYMVMEYCVCGMQEMLDSVPEKRFPVCQAHGYFCQLIDGLEYLHSQGIVHKDIKPGNLLLTTGGTLKISDLGVAEALHPFAADDTCRTSQGSPAFQPPEIANGLDTFSGFKVDIWSAGVTLYNITTGLYPFEGDNIYKLFENIGKGSYAIPGDCGPPLSDLLKGMLEYEPAKRFSIRQIRQHSWFRKKHPPAEAPVPIPPHPDTKDRWRSMTVVPYLEDLHGADEDEDLFDIEDDIIYTQDFTVPGQVPEEEASHNGQRRGLPKAVCMNGTEAAQLSTKSRAEGRAPNPARKACSASSKIRRLSACKQQ [S325H] | 1.54 ± 0.32
